For test [1], the target named is T1, human CD154 expressed on the cell surface of J558L cells (murine myeloma cell line transfected with human … (human, UniProt P29965 1-261)).
T1 construct: whole, on cells; also called CD40L; CD40 ligand
T1 sequence (looked up): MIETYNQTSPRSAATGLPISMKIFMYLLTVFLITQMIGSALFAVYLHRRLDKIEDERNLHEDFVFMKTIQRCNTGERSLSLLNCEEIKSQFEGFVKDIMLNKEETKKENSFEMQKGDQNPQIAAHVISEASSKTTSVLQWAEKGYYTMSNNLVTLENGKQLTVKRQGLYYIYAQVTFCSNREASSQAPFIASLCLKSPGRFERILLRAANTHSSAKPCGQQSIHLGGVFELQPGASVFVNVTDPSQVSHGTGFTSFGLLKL
Briefly: binding to J558L cells. The protocol:
The murine myeloma cells transfected with human CD154, J558L, were incubated with each of the seven anti-CD154 peptides tagged with a 6 histidines tail (-His₆), and then with the anti-CD154 fluorescein-conjugated antibody. The ability of the peptides to compete with the anti-CD154 antibody for the binding to the CD154 molecule expressed on the surface of the J558L cells was evaluated by flow cytometry, as the reduction in the fluorescence intensity compared to the positive control represented by cells incubated with the anti-human CD154 fluorescein-conjugated antibody alone. […] The amino acid sequence of the control peptide differs from that of peptide 4.10 in that an arginine residue is replaced with an alanine residue at amino acid position 5.
The peptides were synthesized and conjugated with biotin (-bio) or with a 6-histidine tail (-his₆) so as to enable in vitro and in vivo localization. […] Furthermore, a competition assay between the peptides and an anti-human CD154 fluorescein-conjugated antibody (Serotec) specifically recognizing the active site of CD154 was carried out.

In test [2] the target is T1, human CD154 expressed on the cell …. Briefly: binding to CD154+ J558L cells.
For test [3] the target is unchanged. Briefly: flow cytometry, -His6 peptide on J558L cells, PE anti-His6 antibody. The protocol: FIG. 2 represents the binding of the seven peptides obtained from the human CD154-binding clones and tagged with a 6 histidines tail (-His₆) to the J558L CD154⁺ cells. […] The cells were incubated with each of the -His₆-tagged peptides and then with a phycoerythrin-conjugated secondary antibody specific for the-His₆ tail. […] For each experimental condition, 10,000 events were analyzed and the values are the mean and standard deviation of 3 different experiments. All of the peptides are capable of specifically binding to the CD154 on the J558L CD154⁺ cells and are not capable of binding to the control J558 cells.
The peptides were synthesized and conjugated with biotin (-bio) or with a 6-histidine tail (-his₆) so as to enable in vitro and in vivo localization. […] Furthermore, a competition assay between the peptides and an anti-human CD154 fluorescein-conjugated antibody (Serotec) specifically recognizing the active site of CD154 was carried out. The J558L cells were incubated with the his₆-peptides for 30 minutes at room temperature and then with anti-human CD154 fluorescein-conjugated antibody for another 30 minutes at room temperature.
(Flow cytometry measures light scatter and fluorescence of single cells or particles in a stream.)

Positions of bridges follow the written chain, without caps; N, C: chain ends. No end group written: not given here.

Results on 14 molecules are retold here after US20110144038A1 (FRESENIUS MEDICAL CARE DEUTSCHLAND G M B H, published 2011).

B1: peptide 4.10 with the residue at position 4 replaced with alanine (peptide)
peptide: CLPARHMAC
notes: also called mutated peptide (position 4)
Take B1: the binding result in test [1] was “no binding”. As to CLPSRHMAC [modified peptide 4.102], the binding result in test [2] was “no binding”.

B2: peptide 4.10 with the residue at position 6 replaced with alanine (peptide)
peptide: CLPTRAMAC
notes: also called mutated peptide (position 6)
As for B2, the binding result in test [1] is listed as “no binding”. With CLPTRWMAC [modified peptide 4.104], in test [2], the binding result is on record as “no binding”.

B3: peptide 4.10 tagged with a 6 histidines tail (-His6) (peptide)
peptide: CLPTRHMACHHHHHH
modifications: disulfide 1-9
notes: Synthetic peptide; also called -his6 peptide
B3: in test [3], the binding result is on record as “binds”.

B4: peptide 4.6 tagged with a 6 histidines tail (-His6) (peptide)
peptide: CLGTQNKECHHHHHH
modifications: disulfide 1-9
notes: as for B3
For the molecule B4, the binding result in test [3] is listed as “binds”.

B5: control peptide 4.10-ala (peptide)
peptide: CLPTAHMAC
notes: also called peptide 4.10 with alanine at position 5
As to B5, the binding result in test [1] is on record as “no binding”.

B6: peptide 4.7 = 4.12 tagged with a 6 histidines tail (-His6) (peptide)
peptide: CTPGKPHSCHHHHHH
modifications: disulfide 1-9
notes: as for B3
With B6, in test [3], the binding result is given as “binds”.

B7: peptide 4.2 = 4.3 tagged with a 6 histidines tail (-His6) (peptide)
peptide: CPSGHTKACHHHHHH
modifications: disulfide 1-9
notes: as for B3
With B7, the binding result in test [3] was “binds”.

B8: peptide 4.11 tagged with a 6 histidines tail (-His6) (peptide)
peptide: CLSAVHNMCHHHHHH
modifications: disulfide 1-9
notes: as for B3
For the molecule B8, the binding result in test [3] is listed as “binds”.

B9: peptide 4.4 tagged with a 6 histidines tail (-His6) (peptide)
peptide: CGTHSSRICHHHHHH
modifications: disulfide 1-9
notes: as for B3
On to B9, for which the binding result in test [3] was “binds”.

B10: peptide 4.8 tagged with a 6 histidines tail (-His6) (peptide)
peptide: CKAASANICHHHHHH
modifications: disulfide 1-9
notes: as for B3
In the case of B10, the binding result in test [3] is reported as “binds”. As for CIPTRHMAC [modified peptide 4.101], the binding result in test [2] is reported as “no binding”. As for CIPTRHMVC [modified peptide 4.103], the binding result in test [2] is reported as “no binding”.
